Results on 2 molecules are retold here after US20200247856A1 (SHIRE HUMAN GENETIC THERAPIES, published 2020).

For experiment [1], the target named is T1, Activin A (R&D Systems, Catalog number 338-AC-050 CF) (UniProt P08476 311-426).
T1 sequence (looked up): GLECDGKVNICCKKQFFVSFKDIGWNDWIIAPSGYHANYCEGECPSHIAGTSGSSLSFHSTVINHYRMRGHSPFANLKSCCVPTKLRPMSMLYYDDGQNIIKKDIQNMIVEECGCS
Briefly: cell-based or functional assay.

Experiment [2] addresses T2, Myostatin (R&D Systems, Catalogue number 788-G8-010/CF) (UniProt O14793 267-375).
T2 sequence (looked up): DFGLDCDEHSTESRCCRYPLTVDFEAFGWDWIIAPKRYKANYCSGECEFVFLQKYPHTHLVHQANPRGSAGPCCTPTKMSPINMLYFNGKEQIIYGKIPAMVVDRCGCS
Briefly: cell-based or functional assay.

B1: ActRIIB-Fc protein (R&D Systems, Catalogue number 339-RBB-100) (Fc fusion, UniProt Q13705 19-134, looked up, not shown: a dimerising Fc or GST)
chain: SGRGEAETRECIYYNANWELERTNQSGLERCEGEQDKRLHCYASWRNSSGTIELVKKGCWLDDFNCYDRQECVATEENPQVYFCCCEGNFCNERFTHLPEAGGPEVTYEPPPTAPT
Take B1: the “Activin A IC50 (nM), luciferase gene reporter assay (Smad3, A204 cells)” value in experiment [1] amounted to 0.5 nM. Moreover, in experiment [2], the “Myostatin IC50 (nM), luciferase gene reporter assay (Smad3, A204 cells)” value amounted to 0.5 nM.

B2: FS315K(76,81,82)E-mFc (Fc fusion, not shown: a dimerising Fc or GST)
chain: GNCWLRQAKNGRCQVLYKTELSKEECCSTGRLSTSWTEEDVNDNTLFKWMIFNGGAPNCIPCKETCENVDCGPGKECRMNEENKPRCVCAPDCSNITWKGPVCGLDGKTYRNECALLKARCKEQPELEVQYQGRCKKTCRDVFCPGSSTCVVDQTNNAYCVTCNRICPEPASSEQYLCGNDGVTYSSACHLRKATCLLGRSIGLAYEGKCIKAKSCEDIQCTGGKKCLWDFKVGRGRCSLCDELCPDSKSDEPVCASDNATYASECAMKEAACSSGVLLEVKHSGSCNSISEDTEEEEEDEDQDYSFPISSILEW
With B2, the “Activin A IC50 (nM), luciferase gene reporter assay (Smad3, A204 cells)” value in experiment [1] was 0.8 nM. For the same molecule, the “Myostatin IC50 (nM), luciferase gene reporter assay (Smad3, A204 cells)” value in experiment [2] came to 0.7 nM.
